# B1: Zinc finger protein Aiolos (Homo sapiens), Q9UKT9 (parent)
# chain: MEDIQTNAELKSTQEQSVPAESAAVLNDYSLTKSHEMENVDSGEGPANEDEDIGDDSMKVKDEYSERDENVLKSEPMGNAEEPEIPYSYSREYNEYENIKLERHVVSFDSSRPTSGKMNCDVCGLSCISFNVLMVHKRSHTGERPFQCNQCGASFTQKGNLLRHIKLHTGEKPFKCHLCNYACQRRDALTGHLRTHSVEKPYKCEFCGRSYKQRSSLEEHKERCRTFLQSTDPGDTASAEARHIKAEMGSERALVLDRLASNVAKRKSSMPQKFIGEKRHCFDVNYNSSYMYEKESELIQTRMMDQAINNAISYLGAEALRPLVQTPPAPTSEMVPVISSMYPIALTRAEMSNGAPQELEKKSIHLPEKSVPSERGLSPNNSGHDSTDTDSNHEERQNHIYQQNHMVLSRARNGMPLLKEVPRSYELLKPPPICPRDSVKVINKEGEVMDVYRCDHCRVLFLDYVMFTIHMGCHGFRDPFECNMCGYRSHDRYEFSSHIARGEHRALLK
# partner: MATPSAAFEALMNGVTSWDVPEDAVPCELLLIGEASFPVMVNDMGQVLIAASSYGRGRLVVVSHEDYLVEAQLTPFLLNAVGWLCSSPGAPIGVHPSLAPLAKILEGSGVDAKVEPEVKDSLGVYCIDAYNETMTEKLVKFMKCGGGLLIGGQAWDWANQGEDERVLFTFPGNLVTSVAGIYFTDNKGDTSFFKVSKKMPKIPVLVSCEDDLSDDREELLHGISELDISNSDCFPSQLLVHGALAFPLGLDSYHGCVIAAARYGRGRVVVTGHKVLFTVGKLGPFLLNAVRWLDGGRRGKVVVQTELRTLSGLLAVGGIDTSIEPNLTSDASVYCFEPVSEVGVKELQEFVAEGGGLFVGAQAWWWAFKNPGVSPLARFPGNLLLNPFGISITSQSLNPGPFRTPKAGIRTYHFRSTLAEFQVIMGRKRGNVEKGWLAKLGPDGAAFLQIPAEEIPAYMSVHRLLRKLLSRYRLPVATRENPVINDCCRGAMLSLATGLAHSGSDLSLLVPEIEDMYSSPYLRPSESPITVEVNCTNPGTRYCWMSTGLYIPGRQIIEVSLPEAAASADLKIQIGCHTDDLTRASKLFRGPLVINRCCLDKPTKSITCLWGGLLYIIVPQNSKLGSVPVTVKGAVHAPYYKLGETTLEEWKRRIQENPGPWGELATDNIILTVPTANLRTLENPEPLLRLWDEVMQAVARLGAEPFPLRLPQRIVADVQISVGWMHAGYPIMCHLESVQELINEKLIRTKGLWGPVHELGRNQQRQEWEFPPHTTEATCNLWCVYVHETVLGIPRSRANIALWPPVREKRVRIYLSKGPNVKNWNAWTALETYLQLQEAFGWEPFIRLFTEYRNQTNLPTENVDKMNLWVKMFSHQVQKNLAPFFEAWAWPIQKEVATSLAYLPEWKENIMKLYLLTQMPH
# B2: Notch homolog 2 N-terminal-like protein A (Homo sapiens), Q7Z3S9 (parent)
# chain: MCVTYHNGTGYCKCPEGFLGEYCQHRDPCEKNRCQNGGTCVAQAMLGKATCRCASGFTGEDCQYSTSHPCFVSRPCLNGGTCHMLSRDTYECTCQVGFTGKECQWTDACLSHPCANGSTCTTVANQFSCKCLTGFTGQKCETDVNECDIPGHCQHGGTCLNLPGSYQCQCLQGFTGQYCDSLYVPCAPSPCVNGGTCRQTGDFTFECNCLPETVRRGTELWERDREVWNGKEHDEN
# partner: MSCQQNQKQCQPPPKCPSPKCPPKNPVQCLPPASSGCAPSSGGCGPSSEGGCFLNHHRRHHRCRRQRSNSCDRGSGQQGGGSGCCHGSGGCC
# B3: Keratin, type I cytoskeletal 13 (Homo sapiens), P13646 (parent)
# chain: MSLRLQSSSASYGGGFGGGSCQLGGGRGVSTCSTRFVSGGSAGGYGGGVSCGFGGGAGSGFGGGYGGGLGGGYGGGLGGGFGGGFAGGFVDFGACDGGLLTGNEKITMQNLNDRLASYLEKVRALEEANADLEVKIRDWHLKQSPASPERDYSPYYKTIEELRDKILTATIENNRVILEIDNARLAADDFRLKYENELALRQSVEADINGLRRVLDELTLSKTDLEMQIESLNEELAYMKKNHEEEMKEFSNQVVGQVNVEMDATPGIDLTRVLAEMREQYEAMAERNRRDAEEWFHTKSAELNKEVSTNTAMIQTSKTEITELRRTLQGLEIELQSQLSMKAGLENTVAETECRYALQLQQIQGLISSIEAQLSELRSEMECQNQEYKMLLDIKTRLEQEIATYRSLLEGQDAKMIGFPSSAGSVSPRSTSVTTTSSASVTTTSNASGRRTSDVRRP
# partner: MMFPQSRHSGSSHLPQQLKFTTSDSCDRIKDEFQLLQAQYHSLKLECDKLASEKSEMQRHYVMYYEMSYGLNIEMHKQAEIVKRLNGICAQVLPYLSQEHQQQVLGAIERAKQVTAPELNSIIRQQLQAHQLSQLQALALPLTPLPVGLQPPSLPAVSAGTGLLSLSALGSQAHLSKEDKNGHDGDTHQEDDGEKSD
# B4: Angiomotin (Homo sapiens), Q4VCS5 (parent)
# chain: MRNSEEQPSGGTTVLQRLLQEQLRYGNPSENRSLLAIHQQATGNGPPFPSGSGNPGPQSDVLSPQDHHQQLVAHAARQEPQGQEIQSENLIMEKQLSPRMQNNEELPTYEEAKVQSQYFRGQQHASVGAAFYVTGVTNQKMRTEGRPSVQRLNPGKMHQDEGLRDLKQGHVRSLSERLMQMSLATSGVKAHPPVTSAPLSPPQPNDLYKNPTSSSEFYKAQGPLPNQHSLKGMEHRGPPPEYPFKGMPPQSVVCKPQEPGHFYSEHRLNQPGRTEGQLMRYQHPPEYGAARPAQDISLPLSARNSQPHSPTSSLTSGGSLPLLQSPPSTRLSPARHPLVPNQGDHSAHLPRPQQHFLPNQAHQGDHYRLSQPGLSQQQQQQQQQHHHHHHHQQQQQQQPQQQPGEAYSAMPRAQPSSASYQPVPADPFAIVSRAQQMVEILSDENRNLRQELEGCYEKVARLQKVETEIQRVSEAYENLVKSSSKREALEKAMRNKLEGEIRRMHDFNRDLRERLETANKQLAEKEYEGSEDTRKTISQLFAKNKESQREKEKLEAELATARSTNEDQRRHIEIRDQALSNAQAKVVKLEEELKKKQVYVDKVEKMQQALVQLQAACEKREQLEHRLRTRLERELESLRIQQRQGNCQPTNVSEYNAAALMELLREKEERILALEADMTKWEQKYLEENVMRHFALDAAATVAAQRDTTVISHSPNTSYDTALEARIQKEEEEILMANKRCLDMEGRIKTLHAQIIEKDAMIKVLQQRSRKEPSKTEQLSCMRPAKSLMSISNAGSGLLSHSSTLTGSPIMEEKRDDKSWKGSLGILLGGDYRAEYVPSTPSPVPPSTPLLSAHSKTGSRDCSTQTERGTESNKTAAVAPISVPAPVAAAATAAAITATAATITTTMVAAAPVAVAAAAAPAAAAAPSPATAAATAAAVSPAAAGQIPAAASVASAAAVAPSAAAAAAVQVAPAAPAPVPAPALVPVPAPAAAQASAPAQTQAPTSAPAVAPTPAPTPTPAVAQAEVPASPATGPGPHRLSIPSLTCNPDKTDGPVFHSNTLERKTPIQILGQEPDAEMVEYLI
# partner: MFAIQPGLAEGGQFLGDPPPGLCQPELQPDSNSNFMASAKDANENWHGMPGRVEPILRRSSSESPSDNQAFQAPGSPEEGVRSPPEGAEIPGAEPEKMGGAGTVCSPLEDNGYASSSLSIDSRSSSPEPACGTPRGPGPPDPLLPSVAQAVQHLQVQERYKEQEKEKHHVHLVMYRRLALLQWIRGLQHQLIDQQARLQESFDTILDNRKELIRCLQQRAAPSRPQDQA
# Variants of: B1
# Details: with tcaf1_human TCAF1, Q9Y4C2
row,Variant,effect of a mutation on the interaction
1,N119D,with no effect
2,A24V,with no effect

# Variants of: B2
# Details: with lce3e_human LCE3E
row,Variant,effect of a mutation on the interaction
1,A115T,with no effect
2,R74Q,with no effect

# Variants of: B3
# Details: with tle5_human TLE5, Q08117
row,Variant,effect of a mutation on the interaction
1,R355H,with no effect

# Variants of: B4
# Details: with ca216_human C1orf216, Q8TAB5
row,Variant,effect of a mutation on the interaction
1,T899A,with no effect
